In the supplement of paper PMC9170038:

Tested on: MS2 coat protein
Assay: apparent KD of MS2 coat protein; designed switch direction (-1 OFF switch, 1 ON switch): -1; higher = weaker reporter binding
In short: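 For each design, the apparent KD is the median over clusters of curves fitted to normalised cluster fluorescence. Clusters held RNA switches with common flanks, transcribed on Illumina chips by stalled E. coli RNA polymerase. These were titrated with SNAP-549-labelled MS2 coat protein, doubling from 0.7 or 1.5 nM to 3 µM, without input, with 200 uM small-molecule ligand, or with an oligonucleotide input.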

[1] = Eterna round: R95, input ligand: microRNA oligo, concentration not stated
[2] = input ligand: microRNA oligo, concentration not stated
[3] = Eterna round: R95, input ligand: FMN 200 uM
[4] = Eterna round: R95, input ligand: none

Sequence | apparent KD of MS2 coat protein (input ligand: FMN 200 uM) [nM] | apparent KD of MS2 coat protein (input ligand: none) [nM] | apparent KD of MS2 coat protein [1] [nM] | other results
CACCAGAGAGGAUAUGCACUCAUGGCACCGAAAGGGAGGCGACAUGAGGAUCACCCAUGUAGAAGGCUCAGCAG [Eternabot (Original) Solution 16] (Eterna round: R97, puzzle: Exclusion 2) | 153 | 70.6 | – | –
AGGUAGCAAGGAUAUACAACUUUGGGCACUGCCUCUUGGAGACAUGAGGAUCACCCAUGUAGAAGGUGCAGGCC [Tibiarusor] (puzzle: Exclusion 2) | – | – | 11.7 | –
GCUAAGGUAGGAUAUUGCGACGUGAACAUGAGGAUCACCCAUGUCUGGUCUGACAGGCAUCAAGAAGGGCCAGUCU [Eternabot (L2) Solution 30] (Eterna round: R97, puzzle: Exclusion 5) | 49.7 | 62.7 | – | –
UCACGGGACUGAGGAUAUACAUGAACCAUGUUUGUAGAAGGCAGAAGGUUUGAUCAUACACUAAACAUGAGGAUCACCCAUGUU [JR_ExcNG1_Sub027] (Eterna round: R96, puzzle: Exclusion NG 1) | 21.1 | 25.1 | – | apparent KD of MS2 coat protein [2]: 15.1 nM
CGUGCGUAUGUGAGGAUAUGCUGGUCCUUGGAUCGGCAGAAGGCACAUGAGGAUCACCCAUGUGGUGUCGUUCG [salish99_Bmod_ex4_093] (puzzle: Brourd's mod of Exclusion 4) | – | – | 126 | –
GUGGUACAUGAGGAUCACCCAUGUUAGGAUAUCGCGUGAGGUUUUACUUCCGCACGCGCGAGAAGGGACGUCUU (puzzle: Exclusion 1) | – | – | 28.9 | –
AAACGGCAUAGAGGAUAUGCUUACCUGGGUCGUCUUCAAACAUGAGGAUCACCCAUGUAGUCGACGCAGAAGGUUAUCAAAGCC [ExNG2 2nd] (Eterna round: R96, puzzle: Exclusion NG 2) | 16 | 17.9 | – | apparent KD of MS2 coat protein [2]: 12.2 nM
CUUUUGUGAGGAUAUUAGUAGUAAAUGAAUAAAAUUAUUACUGAGAAGGCACAUGAGGAUCACCCAUGUUCCUU [Mat - Exclusion 4 - Eli Mod - D19] (Eterna round: R97, puzzle: Exclusion 4) | 83.6 | 14.6 | – | –
UAAUAAAGUGUGAGGAUAUGCUGGUCCUUAGAUCAGCAGAAGGCACAUGAGGAUCACCCAUGUAAUAUAUAAAU [Mat - Exclusion 4 - JL Mod - D56] (puzzle: Brourd's mod of Exclusion 4) | – | – | 22.8 | apparent KD of MS2 coat protein [3]: 245 nM; apparent KD of MS2 coat protein [4]: 30.3 nM
AAUAAUGAUAAGGAUAUCACUAGCUUCGGCUAGUGAGAAGGUAUCACAUGAGGAUCACCCAUGUGUUCCAAUAA [Ex6/6-A1] (Eterna round: R97, puzzle: Exclusion 6) | 38.1 | 18 | – | –
CGAUCCGUAGAGGAUAUAGGACGUCAUAGCGAUUUAGAAGGCUACACAUGAGGAUCACCCAUGUACAUUUCAUA [Eternabot (L1) Solution 60] (Eterna round: R97, puzzle: Exclusion 6) | 18.9 | 18.1 | – | –
ACAGUCACAUGGGUACCAGACAUGAGGAUCACCCAUGUGACAGGUACUUUGUGGCGUCUUGUAUAAUUAAUAAUCAA [Sensor v2, turn off variant (Maaon - vinnie MOD7)] (Eterna round: R96, puzzle: Sensor v2, turn-off variant) | 9.97 | 13.4 | – | apparent KD of MS2 coat protein [2]: 14.3 nM
AAAGAGCGAGGAUAUGCGUGCCGGUGCGGCCAGCCGAUGUGACAUGAGGAUCACCCAUGUAGAAGGCGCAGAAA [Excls2-VIII] (puzzle: Exclusion 2) | – | – | 12.8 | –
GAUUAUGCGAGCUUUAGGGACAUGAGGAUCACCCAUGUUCGUCUUAUUAGUCUAGGUACGCUAACAUACCUAAAUCU [JMF 40] (puzzle: Sensor v3, turn-off variant 1) | – | – | 35.9 | apparent KD of MS2 coat protein [3]: 20.2 nM; apparent KD of MS2 coat protein [4]: 22.8 nM
